Data as given in article PMC7808410 (Nature methods, 2021).

Target: the molecule itself
Assay: cryo-EM structure

Row | Protein | stoichiometry N
1 | E. coli OmpF porin channel (natural protein) AEIYNKDGNKVDLYGKAVGLHYFSKGNGENSYGGNGDMTYARLGFKGETQINSDLTGYGQWEYNFQGNNSEGADAQTGNKTRLAFAGLKYADVGSFDYGRNYGVVYDALGYTDMLPEFGGDTAYSDDFFVGRVGGVATYRNSNFFGLVDGLNFAVQYLGKNERDTARRSNGDGVGGSISYEYEGFGIVGAYGAADRTNLQEAQPLGNGKKAEQWATGLKYDANNIYLAANYGETRNATPITNKFTNTSGFANKTQDVLLVAQYQFDFGLRPSIAYTKSKAKDVEGIGDVDLVNYFEVGATYYFNKNMSTYVDYIINQIDSDNKLGVGSDDTVAVGIVYQF | 3
2 | E. coli glutamate decarboxylase GadB (enzyme) MDKKQVTDLRSELLDSRFGAKSISTIAESKRFPLHEMRDDVAFQIINDELYLDGNARQNLATFCQTWDDENVHKLMDLSINKNWIDKEEYPQSAAIDLRCVNMVADLWHAPAPKNGQAVGTNTIGSSEACMLGGMAMKWRWRKRMEAAGKPTDKPNLVCGPVQICWHKFARYWDVELREIPMRPGQLFMDPKRMIEACDENTIGVVPTFGVTYTGNYEFPQPLHDALDKFQADTGIDIDMHIDAASGGFLAPFVAPDIVWDFRLPRVKSISASGHKFGLAPLGCGWVIWRDEEALPQELVFNVDYLGGQIGTFAINFSRPAGQVIAQYYEFLRLGREGYTKVQNASYQVAAYLADEIAKLGPYEFICTGRPDEGIPAVCFKLKDGEDPGYTLYDLSERLRLRGWQVPAFTLGGEATDIVVMRIMCRRGFEMDFAELLLEDYKASLKYLSDHPKLQGIAQQNSFKHT | 6
3 | E. coli OmpC outer membrane osmoporin channel (natural protein) AEVYNKDGNKLDLYGKVDGLHYFSDNKDVDGDQTYMRLGFKGETQVTDQLTGYGQWEYQIQGNSAENENNSWTRVAFAGLKFQDVGSFDYGRNYGVVYDVTSWTDVLPEFGGDTYGSDNFMQQRGNGFATYRNTDFFGLVDGLNFAVQYQGKNGNPSGEGFTSGVTNNGRDALRQNGDGVGGSITYDYEGFGIGGAISSSKRTDAQNTAAYIGNGDRAETYTGGLKYDANNIYLAAQYTQTYNATRVGSLGWANKAQNFEAVAQYQFDFGLRPSLAYLQSKGKNLGRGYDDEDILKYVDVGATYYFNKNMSTYVDYKINLLDDNQFTRDAGINTDNIVALGLVYQF | 3
